{"source": "paper PMC12238454", "about": "“Soyasaponin β-glucosidase confers soybean resistance to pod borer (Leguminivora glycinivorella)” (aBIOTECH, 2025)", "proteins": {"B1": {"name": "GmSSBG1 (SSBG1Δ24; GmBGLU13) (Glycine max) (protein)", "chain": "LDLSFLPSDFLFGIASSSYQYEGAYKSDGKGLSNWDNYTHGPGRSVIMDGSNGDIAIDHYHRYLEDIDLMETLGVNSYRLSLSWARILPKGRFGEPNHAGIEFYNRLIDVLLLKGIQPFVTLSHYDIPQELEDRYGSWLSPQLQEDFAFYADLCFKTFGDRVKYWVTFNEPNFLVSLGYRSGLYPPCRCSGQLAMAKCSEGDSEKEPFVAAHNVILSHAAAVDIYRTKYQTEQKGSIGIVLQHEWFEPMSNSTADKLASERARAFNFNWFLDPIIFGKYPTEMENVLGSLLPKFSSYEKEKLKRGLDFIGVNYYTAFYVQDCMYSACKPGPGISRTEGSYKKSGEKNGVPIGEPTPFSWFNIYPDGMEKTVTYVRDRYNNTPIFLTENGYAEEVDPNFTSEEHLNDFKRIKYMVDHIEALLAAIRKGADVRGYFAWTLIDSFEWIYGYTVRYGFHHVDYATLKRTPRLSASWYKQLLVQYKKTFLLGTSMTGHEKLVQHT", "notes": "N-terminal 24-residue signal peptide removed (SSBG1Δ24); MBP fusion from pMAL-c2x, E. coli BL21(DE3), amylose resin; tag removal not mentioned"}}, "test_in_all_cases": "purified protein", "assay_type_in_all_cases": "biochemical, Glycine max", "settings_in_all_cases": "50 mM Na2HPO4-citric acid buffer, optimal pH 5.5 and temperature 42 °C, apparent Km, substrate 1.25-80 µM", "key": {"purified protein [1]": {"substrate": "CC1(C)C[C@H]2C3=CC[C@@H]4[C@@]5(C)CC[C@H](O[C@@H]6O[C@H](C(=O)O)[C@@H](O)[C@H](O)[C@H]6O[C@@H]6O[C@H](CO)[C@H](O)[C@H](O)[C@H]6O)[C@](C)(CO)[C@@H]5CC[C@@]4(C)[C@]3(C)CC[C@@]2(C)[C@H](O[C@@H]2OC[C@H](O)[C@H](O)[C@H]2O)[C@@H]1O"}, "purified protein [2]": {"substrate": "CC1(C)C[C@H]2C3=CC[C@@H]4[C@@]5(C)CC[C@H](O[C@@H]6O[C@H](C(=O)O)[C@@H](O)[C@H](O)[C@H]6O[C@@H]6O[C@H](CO)[C@H](O)[C@H](O)[C@H]6O[C@@H]6O[C@H](CO)[C@@H](O)[C@H](O)[C@H]6O)[C@](C)(CO)[C@@H]5CC[C@@]4(C)[C@]3(C)CC[C@@]2(C)[C@H](O[C@@H]2OC[C@H](O)[C@H](O)[C@H]2O)[C@@H]1O"}, "purified protein [3]": {"substrate": "C[C@@H]1O[C@@H](O[C@H]2[C@H](O[C@H]3[C@H](O[C@H]4CC[C@@]5(C)[C@@H](CC[C@]6(C)[C@@H]5CC=C5[C@@H]7CC(C)(C)[C@@H](O)[C@@H](O[C@@H]8OC[C@H](O)[C@H](O)[C@H]8O)[C@]7(C)CC[C@]56C)[C@@]4(C)CO)O[C@H](C(=O)O)[C@@H](O)[C@@H]3O)O[C@H](CO)[C@H](O)[C@@H]2O)[C@H](O)[C@H](O)[C@H]1O"}}, "data": [{"protein": "B1", "values": [{"measurement": "Km", "setting": "purified protein [1]", "value": 28.88, "unit": "µM"}, {"measurement": "kcat", "setting": "purified protein [1]", "value": 0.0018, "unit": "s⁻¹"}, {"measurement": "Km", "setting": "purified protein [2]", "value": 46.51, "unit": "µM"}, {"measurement": "kcat", "setting": "purified protein [2]", "value": 0.0040, "unit": "s⁻¹"}, {"measurement": "Km", "setting": "purified protein [3]", "value": 165.90, "unit": "µM"}, {"measurement": "kcat", "setting": "purified protein [3]", "value": 0.0072, "unit": "s⁻¹"}]}]}
